Experimental data from article PMC11116815.

Target: T1, chemokine (C-C motif) receptor (CCR)1 (human (endogenous in THP-1 and human monocytes)) (UniProt P32246)
T1 sequence: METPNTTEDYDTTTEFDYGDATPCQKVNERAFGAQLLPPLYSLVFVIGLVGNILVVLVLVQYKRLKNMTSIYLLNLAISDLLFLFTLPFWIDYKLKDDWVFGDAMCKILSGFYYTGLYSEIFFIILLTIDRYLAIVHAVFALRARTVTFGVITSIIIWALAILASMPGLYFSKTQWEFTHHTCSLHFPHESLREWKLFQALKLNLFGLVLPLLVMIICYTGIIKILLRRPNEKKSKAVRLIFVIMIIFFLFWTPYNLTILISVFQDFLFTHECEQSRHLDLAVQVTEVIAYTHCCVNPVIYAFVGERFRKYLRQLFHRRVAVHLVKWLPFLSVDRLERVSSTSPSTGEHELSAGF

B1: CCL23_(25-99) (ligand)
chain: RFHATSADCCISYTPRSIPCSLLESYFETNSECSKPGVIFLTKKGRRFCANPSDKQVQVCMRMLKLDTRIKTRKN
Binder B1 has an EC50 of CCL23 for Gαi activation (TRUPATH BRET biosensor: Gαi1-Rluc8, Gβ3, Gγ9-GFP2) in HEK293T cells transfected with untagged CCR1 alone of 0.3 nM.
